Measured values reported in patent US20120058906A1.

Tests used:
[1] = molecular target: rHuman EGF R/Fc Chimera, CF (R&D Systems Cat#344-ER) (human) (UniProt P00533); assay: MSD ECL multi-spot assay, antigen spotted on plate, Fab 0.51 uM; blank spot 1393
[2] = molecular target: rHuman Erythropoietin R/Fc Chimera, CF (R&D Systems Cat#963-ER) (human) (UniProt P19235); assay: as above
[3] = molecular target: rHuman Notch-1/Fc Chimera, CF (R&D Systems Cat#3647-TK) (human) (UniProt P46531); assay: as above
[4] = molecular target: rHuman P-Cadherin/Fc Chimera, CF (R&D Systems Cat#861-PC) (human) (UniProt P22223); assay: as above
[5] = molecular target: rHuman CD44/Fc Chimera, CF (R&D Systems Cat#3660-CD) (human) (UniProt P16070); assay: MSD ECL multi-spot, Fab 0.43 uM, blank 879
[6] = molecular target: rHuman EGF R/Fc Chimera, CF (R&D Systems Cat#344-ER) (human) (UniProt P00533); assay: MSD ECL multi-spot, Fab 0.43 uM, blank 879
[7] = molecular target: rHuman HGF R/c-MET/Fc Chimera, CF (R&D Systems Cat#358-MT/CF) (human) (UniProt P08581); assay: MSD ECL multi-spot, Fab 0.43 uM, blank 879
[8] = molecular target: Recombinant Human DLL4 (R&D Systems Cat#1506-D4/CF) (human) (UniProt Q9NR61); assay: ECL (MSD Multi-Spot) binding, antigen spotted on plate, Fab at […]; blank spot 250
[9] = molecular target: Recombinant Human DLL4 (R&D Systems Cat#1506-D4/CF) (human) (UniProt Q9NR61); assay: ECL (MSD Multi-Spot) binding, antigen spotted on plate, Fab at […]; blank spot 294
[10] = molecular target: rHuman P-Cadherin/Fc Chimera, CF (R&D Systems Cat#861-PC) (human) (UniProt P22223); assay: as above
[11] = molecular target: Recombinant Human DLL4 (R&D Systems Cat#1506-D4/CF) (human) (UniProt Q9NR61); assay: ECL (MSD Multi-Spot) binding, antigen spotted on plate, Fab at 125 nM; blank spot 403
[12] = molecular target: Recombinant Human DLL4 (R&D Systems Cat#1506-D4/CF) (human) (UniProt Q9NR61); assay: ECL (MSD Multi-Spot) binding, antigen spotted on plate, Fab at 250 nM; blank spot 590
[13] = molecular target: rHuman P-Cadherin/Fc Chimera, CF (R&D Systems Cat#861-PC) (human) (UniProt P22223); assay: as above
[14] = molecular target: Recombinant Human DLL4 (R&D Systems Cat#1506-D4/CF) (human) (UniProt Q9NR61); assay: ECL (MSD Multi-Spot) binding, antigen spotted on plate, Fab at 500 nM; blank spot 680
[15] = molecular target: rHuman P-Cadherin/Fc Chimera, CF (R&D Systems Cat#861-PC) (human) (UniProt P22223); assay: as above
[16] = molecular target: Recombinant Human DLL4 (R&D Systems Cat#1506-D4/CF) (human) (UniProt Q9NR61); assay: ECL (MSD Multi-Spot) binding, antigen spotted on plate, Fab at 7.8 nM; blank spot 316
[17] = molecular target: rHuman P-Cadherin/Fc Chimera, CF (R&D Systems Cat#861-PC) (human) (UniProt P22223); assay: as above
[18] = molecular target: Recombinant Human DLL4 (R&D Systems Cat#1506-D4/CF) (human) (UniProt Q9NR61); assay: ECL (MSD Multi-Spot) binding, antigen spotted on plate, Fab at 62.5 nM; blank spot 268
[19] = molecular target: rHuman P-Cadherin/Fc Chimera, CF (R&D Systems Cat#861-PC) (human) (UniProt P22223); assay: as above
[20] = molecular target: Recombinant Human DLL4 (R&D Systems Cat#1506-D4/CF) (human) (UniProt Q9NR61); assay: ECL (MSD Multi-Spot) binding, antigen spotted on plate, Fab at 1000 nM; blank spot 1133
[21] = molecular target: rHuman P-Cadherin/Fc Chimera, CF (R&D Systems Cat#861-PC) (human) (UniProt P22223); assay: as above
[22] = molecular target: rHuman P-Cadherin/Fc Chimera, CF (R&D Systems Cat#861-PC) (human) (UniProt P22223); assay: ECL (MSD Multi-Spot) binding assay, antigen spotted on plate; Fab 6 nM; blank spot 191
[23] = molecular target: rHuman P-Cadherin/Fc Chimera, CF (R&D Systems Cat#861-PC) (human) (UniProt P22223); assay: ECL (MSD Multi-Spot) binding assay, antigen spotted on plate; Fab 17 nM; blank spot 143
[24] = molecular target: rHuman P-Cadherin/Fc Chimera, CF (R&D Systems Cat#861-PC) (human) (UniProt P22223); assay: ECL (MSD Multi-Spot) binding assay, antigen spotted on plate; Fab 51 nM; blank spot 335
[25] = molecular target: rHuman P-Cadherin/Fc Chimera, CF (R&D Systems Cat#861-PC) (human) (UniProt P22223); assay: ECL (MSD Multi-Spot) binding assay, antigen spotted on plate; Fab 154 nM; blank spot 447
[26] = molecular target: rHuman ErbB2/Fc Chimera, CF (R&D Systems Cat#1129-ER) (human) (UniProt P04626); assay: MSD ECL multi-spot assay, antigen spotted on plate, Fab […]; blank spot 2877
[27] = molecular target: rHuman HGF R/c-MET/Fc Chimera, CF (R&D Systems Cat#358-MT/CF) (human) (UniProt P08581); assay: as above
[28] = molecular target: rHuman IGF-1 sR (IGF-1 sR), CF (R&D Systems Cat#391-GR) (human) (UniProt P08069); assay: as above

rHuman Erythropoietin R/Fc Chimera, CF (R&D Systems Cat#963-ER) (human), sequence (P19235 25-250, change not shown): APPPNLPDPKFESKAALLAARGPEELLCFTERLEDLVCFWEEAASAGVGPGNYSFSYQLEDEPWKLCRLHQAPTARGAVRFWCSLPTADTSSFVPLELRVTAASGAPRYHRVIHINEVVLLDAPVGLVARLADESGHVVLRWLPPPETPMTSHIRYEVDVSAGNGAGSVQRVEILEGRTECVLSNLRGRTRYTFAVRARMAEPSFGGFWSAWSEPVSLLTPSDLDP

“Fab VH4-34_IGHD7-27*01_IGHJ4*01 & L5_IGKJ1*01” was tested, and the ECL signal [1] was 1810, the ECL signal [2] was 2560 and the ECL signal [3] was 2880. The ECL signal [4] was 3180.

“Fab VH1-46_IGHD6-13*01_IGHJ4*01 & B3_IGKJ1*01” was tested, and the ECL signal [5] was 1500, the ECL signal [6] was 1230 and the ECL signal [7] was 1140. It also gave an ECL signal [8] of 528, an ECL signal [9] of 525 and an ECL signal [10] of 971. It also gave an ECL signal [11] of 912, an ECL signal [12] of 1560 and an ECL signal [13] of 2780. The ECL signal [14] was 2320, the ECL signal [15] was 3450 and the ECL signal [16] was 407. For the same substance, the ECL signal [17] was 695, the ECL signal [18] was 715 and the ECL signal [19] was 1170. For the same substance, the ECL signal [20] was 2780 and the ECL signal [21] was 4500.

Substance “Fab VH5-51_IGHD5-18*01>3_IGHJ4*01 & V3-4_IGLJ1*01” has an ECL signal [22] of 358, an ECL signal [23] of 542 and an ECL signal [24] of 854. For the same substance, the ECL signal [25] was 1730.

For “Fab VH1-46_IGHD6-13*01_IGHJ4*01 & A27_IGKJ1*01”, the ECL signal [26] was 6940, the ECL signal [27] was 6310 and the ECL signal [28] was 5470.
